From patent publication US20150010586A1

Target: HLA-A*0201 (human)
Test: HLA-A*0201 peptide stabilization assay; unstable if >50% of complexes lost within 2 h
Conditions: remark: other sources report otherwise

Stability | Binder
6 h | GLAPPQHLIRV [p53 187-197 …]
6 h | FLHSGTAKSV [p53 113-122 …]
6 h | RMPEAAPPV [p53 65-73 …]

Target: HLA-A*1101 (human)
Test: cellular competition assay vs FL-labelled reference peptide on B cells; affinity category (high/good IC50<5 uM, intermediate 5-15 uM, low >15-50 uM)
Conditions: remark: other sources report otherwise

IC50 | Binder
5 to 15 µM | RTEEENLRK [p53 283-291 …]
5 to 15 µM | GFLHSGTAK [p53 112-120 …]
5 to 15 µM | RAHSSHLK [p53 363-370 RAHSSHLK]

Target: HLA-A*0301 (human)
Test: as above
Conditions: remark: other sources report otherwise

IC50 | Binder
5 to 15 µM | GFLHSGTAK [p53 112-120 …]
5 to 15 µM | GTRVRAMAIY [p53 154-163 …]
5 to 15 µM | FLHSGTAK [p53 113-120 FLHSGTAK]
5 to 15 µM | VTCTYSPALNK [p53 122-132 …]
5 to 15 µM | VVRRCPHHER [p53 172-181 …]
5 to 15 µM | KGQSTSRHK [p53 373-381 …]
5 to 15 µM | RAHSSHLKSK [p53 363-372 …]

Target: HLA-A*0101 (human)
Test: as above
Conditions: remark: other sources report otherwise

IC50 | Binder
5 to 15 µM | RVEGNLRVEY [p53 196-205 …]
